In patent US10801046B2, “Methods and materials for biosynthesizing multifunctional, multivariate molecules via carbon chain modification” (INVISTA NORTH AMERICA S.A.R.L., priority 2016, dated 2020):

Test: In vivo carboxylate reductase screening, substrate consumption by LC-MS, monomethyl heptanedioate
Type: cell-based, Escherichia coli
Settings: 541 enzymes screened in vivo
Experimental: To screen carboxylate reductases in vivo, […] T7- pUC expression vectors was co-transformed into T7 Express lysY/Iq with the phosphopantetheinyl transferase sfp from Bacillus subtilis on a T7-pCDF expression vector. Biological duplicates of the resulting strains were incubated in 0.5 mL of terrific broth containing either 1 g/L heptanedioate or 1 g/L monomethyl heptanedioate and supplemented with 0.4 mM IPTG in 96-well deep well plates. The plates were incubated for 30 h at 30° C. in a shaking incubator. The cells were then pelleted, and culture supernatants from the same strains in media containing either heptanedioate or monomethyl heptanedioate were combined. The combined supernatants were analyzed by LC-MS to determine the concentration of heptanedioate and monomethyl heptanedioate. Carboxylate reductase activity on heptanedioate or monomethyl heptanedioate was reflected by consumption of the respective substrate in the medium.

Row | Molecule | monomethyl heptanedioate activity
1 | SEQ ID NO: 214: Mycobacterium lepromatosis carboxylate reductase (protein, listed as Mycobacterium lepromatosis) MSTTNTQEEQLARRVDYLTANDPQFAAAKPDPAVVAALAQPGLRLPQIIQTTLDGYAERPALGQRVVEFIKDPKTGRTSIELLPCFETITYRELSDRVGALARAWIHDLLHAGDRVCVLGFNSVDYAIIDMALGVISAVAVPLQTSAAITQLQPIVIETEPRVIAASVNQLPDTVELILSGPAPAKLVVFDYHPEADEQRDAVATARERLVDNNVVVESLIEVLDRGKTLPATPIPVADDSDDPLALLIYTSGSTGAPKGAMYPQSNVGKMWRRSDGNWFRSTAASITLNFMPMSHVMGHGILYGTLGNGGTAYFAARSDLSTLLEDLKLVRPTELNFVPRIWETLYDECQHAVDRRLTNSGSADRAAIEAEVMDEQRQSLLGGRYIAAMTGSAPTSPELKHGVESLLEMHLLEGYGSTEAGMVLFDGEVQRPPVIDYKLVDVPDLGYFSTDQPYPRGELLLKTQNMFPGYYKRPEVTATVFDGDGYYQTGDIVAEVGPARLVYVDRRNNVLKLAQGQFVTVAQLEAAFSNSPLVRQIYIYGNSAHPYLLAVVVPTEDALATNDIEALKPLIIDSLQEVAKEAELQSYEVPRDLIIETTPFSLENGLLTGIRKLAWPKLKQHYGARLEQLYADLAEGQTNALHALRQSGAEAPVLQTVSRAAGTILGAATTDLPSNAHFTDLGGDSLSALTFSNLLRELFNIDVPVGVIVSPVNDLAAIADYIESEQQGTKRPTFTAIHGRDAGEVHASDLTLDKFIDVSTLTAAPMLAQPDAEVRTVLLTGATGFLGRYLALKWLERMDLVDGKVIALVRAKSNEEARARLGKTFDSGDPKLLAHYQELAADHLEVIAGDKGEVELELDRQTWRRLADTVDLIVDPAALVNHVLPYSELFGPNALGTAELIRIALTSKQKPYIYVSTIGVGDQIEPAKFTEDSDIRVTSPTRKINDNYANGYGNSKWAGEVLLREAHELCGLPVAVFRCDMILADTSYAGQLNVPDMFTRMMLSLAATGIAPGSFYELDAESNRQRAHYDGLPVEFIAEAISTLGAQSLHGRDGFATYHVMNPHDDGIGMDEFVDWLIDAGCPIQRINDYDEWLRRFEISLRALPERQRHNSLLPLLHNYQKPEKPLNGSLAPTDRFRTAVQESKIVQDKDIPHISSAIIGKYVSDLQLLGLLRRQADRSPARVPS | most monomethyl heptanedioate activity
2 | SEQ ID NO: 212: Anisakis simplex carboxylate reductase (protein, Anisakis simplex, Anisakis simplex carboxylate reductase) MYERLLHCIGYQVGLRFGFFGGDVNRLIDDIKELHPTVIPLVPRVLNRFHDTVMAKVNKSFLKRIIFNLALAFKYRELSRSIIRNDSLVDRYVFKRVREELGGRARFSMIGSAPVHGDILRFSRAVLGYVIVEGYGATECAAGTSAVIEADPITEHIGIPLACAAIKLVDVPELGYYAKDQAGEICYRGAHVFKGYFKNDEGTKEVLDADGWLHSGDIGRWTERGTLKIVDRKKHIFKLQQGEYIAPEKIEAVYDRSEYVVQSFVYGESLKTCLVAIIVPDQEIVLRDAKQKLDLAETDFAKLCRNDAVKKMILNDLTIVGRKAGLNSFEQVKDIYLSVERFTIANDLLTPTMKNKRPQIKSHFMKELNEMYSKLK | most monomethyl heptanedioate activity
3 | SEQ ID NO: 209: Nocardia brasiliensis NBRC 14402 carboxylate reductase (protein, Nocardia brasiliensis NBRC 14402, Nocardia brasiliensis NBRC 14402 carboxylate reductase) MERKAEVLAARRVEDLIERDAQVRAAIPDPVVTAELERADGSLAQTVARVMAGYADRPALGQRAVEFVPDENGCRRTRLLPWFDTITFGELWQRVGTVAAVWQSRAERSVRAGDFVAVLGSTGIDYTVVDLACTYSGAVPVPLQAGASPTQLAPIVREVEPKVLATDVGQLEVAVDLASAGDSVRSLLIFGLYAEDDEHCAAVESARRRLADTPVVVETIVELLASGQDRPAASLHASADPDELALLIYTSGSTGTPKGAMYTQRLLTNAWCAAGASPMPSIALSYLPMSHTMARQLLLTGLARGGTVYFAARNDMSTLFDDFALARPTLLGFVPRVCDMVLQRFQSEMARRVGADDEPTVVEQEVKTELREQFLGGRFLVASIGSAPLSADMREFMQSVLGIALIDAYGSTETGGVLMNNKVVRTAILDYKLVDVPELGYFSTDRPHPRGELLIKSRTLIPGYYKRPELNSQFFDAEGFYRTGDVMAQTGFDELVYVDRRNSVLKLSQGEFVAVSKLEAIFVGSPLVEQIYVYGSSERAYLLAVIVPVAEAIATHAGTAELKAAISESLRQIAKDAELSSYEVPRDFLLESEPFTVDNGLLAGLSKLLRPSLKERYGERLEALYRVAEAAQTQELAALRQQAGMLPVLETVSRAAQAVLGVSAAELRPDAHFTDLGGDSLAALSFSTLLQELLGVQVPVGVIASSANDLRRIANYAVAERSAGSLRPTSTGVHGTGSQLRAIDLRLDKFIDPSTLAAATTLPRAGEPRTVLLTGANGYLGRFLCLEWLQRLHHSGGTLICVVRGIDAVAARERLDEVFDSGDPELLHRYRELAEGTLEVLCGDISEPGLGLSERDWRRLADTVELIVHAAALVNHVLPYGQLFGPNVVGTAEIIRLAMTTRIKPVTYLSTVAVAAQVAPEQFTEDGDIREISAVRSLDEGYADGYGTSKWAGEVLLREAYDLCGLPVAVFRSDMILAHSRFAGQLNVSDMFTRLVLSVLATGVAPKSFYETDRMGNRQRAHYDGLPVDFTAQAITVLGSQVVSGFETFDVLNPHDDGLSLDEFVDWLIAAGHSIDRIDGYAEWLSRFGTALRVLSERQRQHSVLPLLHAYRRAAVPIPGAALPAKKFQAAVQDAQLGPGRDIPHLTPDLIEKYVSDLKLRNLL | most monomethyl heptanedioate activity
4 | SEQ ID NO: 211: Theileria parva carboxylate reductase (protein, listed as Theileria parva) MNHLYSVALEGTEEEGYTPVYRNPDYKDRLLSCEDYFDGKIQTGWDIFNRGLTLSRNKPFLGSRVKNADGTFGEFKFMTYGEVEDQIKHFGSGLLNLDKFKEVFVKEENQMVKMLGIYSQNTVEWLITEQVCNGYNLTLVPLYDTLGEESLLYIINVTKLNVIVCDYKCSLKLLDLLPKSNGSVSLVVVTGVDELPDQVTAKSQSLSSVTFKTYQEVVNFGKEDPLAFTPCTKDSIGTISYTSGVSGIPKGVIVKHFQHASLVVIVNRIVCDLEKTQLENPKVHLSYLPLSHMFERLYIGTSIIEGSVIGLFSGDVKNILEDIKALRPNVFPSVPRLYMRIHDKIFSTVSQKSFLIRSLFGLGLSRKLKKIRKTGVVTHRFWDKILFNKFNTLLGGRVNWMLTGSAPLSPKIFDNIRALFSIPLVSGYGLTETCAGAFHTERYEPDSTHVGGPVPCMEFRLKSLPDYNYYTTDKNPKGELLLRGNNIVTSYFSDDVTNKESFDENKWFLTGDIAELLPNGAIRIIDRRKNIFKLSQGEYISPEKIESILNTAPILCQSYVTGKSHFLNPVAVVVPDELELELWSKRYGLANLDRKEQCEVKQLKEFIAKEIEKVFENSDVKGFEKIKNFYVEHELFSIENNLLTTTSKLKRYNLSKKYAEQIDRLNDES | most monomethyl heptanedioate activity
5 | SEQ ID NO: 210: Rhizopus microspores carboxylate reductase (protein, listed as Rhizopus microsporus) MPPAFDPPYSVPVPGSEKKEGETVPFRHFKFADKLVDHPEGVFTAWDIFVHGYDSAGDKPFMGTRRIEDGVAKEYVWQNYPEVRTRIENFGKGMLHLGLKRQHAIGVYSVNRPEWTMTEIASYRQAFMIVALYDTLGAEAMEYIINQTSMEYIVLSADKLDNIIRLKSQIATISTAIVMDDEVDDAKKAEAEAAGIKVYTFRQVETMGSEITSESDLPKPEDIATICYTSGTTGVPKGAVITQANCVAAISAIAALGDKGTFADVNSDDIYISYLPLAHVFERVAQGIHLFRGAAIGYYQGDTLKLLDDIAELRPTVFCSVPRLFNRIYDKVLAGVKAKGGVSAYLFNTAFQSKKRHLSKTVHHWLWDRVVFTQIRQKLGGRLRFILSGSAPVSPDVMDFMRICFSAKVFEGYGQTENFCGGALTITDDNTSGVVGAPFPCSEIKLVDVPEMEYFSTDKPFPRGEICIRGTSIMQGYYQLPEKTAEAIDKDGWLHTGDIGQFDSANRLVIIDRLKNIFKLSQGEYIAPEKIEGVYQKHELVAQAFIYGDSMQSSLVGIIVPDKDAFSAWAKEHFPTVEDPYASDEVKKALLKELTAYGKENDLKGFEQMRSVYLTPNEFSIENDLLTPTFKLRRENAKKVYESQIEIMYASLSNGRAFN | most monomethyl heptanedioate activity
6 | SEQ ID NO: 213: Helobdella robusta carboxylate reductase (protein, listed as Helobdella robusta) MRVSNNGPFLGHRCRFTKQYVWQTYEEIFELCQDFGSALIYKGLKPEDSTVIGIYSHNCVEWNITSETCSMFSMALVPLYDTLGPEACQYIINQTEMTTVVCEGWLKANLILNGLKQAESRTATPLKRLIIITNKDFHMSLKDSVRVSKHFSSSPDLANFADADSLSKNVLETAEKFGVEIPPTPSTINLISYTSGTTGDPKGVVLTHEAVICNISGLLAYDQHHKLFPKCGDFHLSYLPAAHGFERMNQIILMINGGQIGFSSGDILLLLDDIAALRPTIFMCVPRVLNRVYEKVMSNLENKPIKRWLFNFGMQRKLNLLKRGIITKNTIWDKLMFHKIQTLFGGRLEVCISGSAPLSDVVMDFCRGTFGCFVYEGYGQTELCAATMLTLPYEHDTVVVGPPLPNCHIKLIDIPDLDYKAINNMGEICIKSFCRMREYFKEPIKTRETLDEDSYIHTGDVGMWLPNGNLRIIDRRKHVFKLAQGEYVAPEKIENIYAMSPLICQVFVDGNSLQFCPLAVVVPDEDALKRLAERDSRTSKTICPIKICNMEQFCKNEEIRKMIHADMLQRGKKAGLKGFEQVKDIHLHPEKFSIENGLLTPTMKTKRPILRKKFQNIFVEMYEKLNRNVVSTNITTHPLQNL | most monomethyl heptanedioate activity
